In the RNAGym collection of RNA variant scans (doi:10.7554/elife.80360) one finds self-cleavage data, which are given here for 38 variants.

The labels stand for the following.
B1: Hairpin Ribozyme (parent)
chain: GUCCUCUUUCACGUGCGCGUGAAAGAGAGAAGUGAACCAGAGAAACACACGUUGUGGUAUAUUACCUGGUA

In the data set the parent is B1. Nature of the data set: self-cleavage, relative activity (ratio to wild type); higher = more cleavage; co-transcriptional.
For the variant GUCCUCUUUCACGUGCGCGUGAAAGAGAGAAGUGAACCAGAGAAACACACGUUGUGGGAUAUUACCUUGUA, the self-cleavage turned out to be 0.19.

On to GUCCUCUCUCACGUGCGCGUGAAAGAGAGAAGUGAACCAGAGAAACACACGUUGUGGUAUAUUACGUGGUA, for which the self-cleavage was 0.0616.

In the case of GUCCUCUUUCACGUGCGCGUGAAAAAGAGAAGGGAACCAGAGAAACACACGUUGUGGUAUAUUACCUGGUA, the self-cleavage came to 0.136.

Consider GUCCUCUUUCACGUGCGCGUGAAAGAAAGAAGUGAGCCAGAGAAACACACGUUGUGGUAUAUUACCUGGUA, for which the self-cleavage was 0.42.

GUCCUCUUUCACGUGCGCGUGAAAGAGAGAAGUGAACCGGAGAAACACACGUUGUGGUAUAUUACCUCGUA: the self-cleavage was determined as 0.103.

With GUCCUCUUUCACGUGCGCGUGAAAGAGAGAUGUGAACUAGAGAAACACACGUUGUGGUAUAUUACCUGGUA, the self-cleavage stood at 0.157.

Turning to GUCCUCUUUCACCUGCGCGUGAAAGAGAGAAGUGAGCCAGAGAAACACACGUUGUGGUAUAUUACCUGGUA, the self-cleavage came to 0.816.

Regarding GUCCUGUUUCACGUGCGCGUGGAAGAGAGAAGUGAACCAGAGAAACACACGUUGUGGUAUAUUACCUGGUA, the self-cleavage came to 0.52.

GUCCUCUUUCACGUGCGCGUGAAAAAGAGAAGUGAACCAGAGAAACAAACGUUGUGGUAUAUUACCUGGUA: the self-cleavage is 0.176.

As to GUCCUCUUUCACGUGCGCGUGAAAGAGAGAAGUGAACCAGAGAAACACACGUUGUGUUAUUUUACCUGGUA, the self-cleavage is 0.203.

Consider GUCCUCUUUCACGUGCGCGUGAAAGAGAGAAAUGAACCAGAGAAACACACGUUGUCGUAUAUUACCUGGUA, for which the self-cleavage came to 0.0365.

Consider GUCCUCUUUCACGUGCGCGUGAAAGGGACAAGUGAACCAGAGAAACACACGUUGUGGUAUAUUACCUGGUA, for which the self-cleavage came out at 0.139.

Regarding UUCCUCUUUCACGUGCGCGUGAAAGAGAGAAGUGAACCAGAGAAACACACGUUGUGGUAUAUUACCUAGUA, the self-cleavage amounted to 0.124.

Consider GUCCUCUUUCACGUGCGCGUGAAAGAGAGUAGUGAACCAGAGAAACACACGUUGGGGUAUAUUACCUGGUA, for which the self-cleavage is 0.106.

Regarding GUCCUCUUUCACGUGCGCGUGAAAAAGAGAAGUGAACCAGAGAAACACACGGUGUGGUAUAUUACCUGGUA, the self-cleavage was 0.61.

Regarding GUCCUCUCUCACGUGCGCGUCAAAGAGAGAAGUGAACCAGAGAAACACACGUUGUGGUAUAUUACCUGGUA, the self-cleavage stood at 0.114.

Take GUCCUCUUUCACUUGCGCGUGAAAGACAGAAGUGAACCAGAGAAACACACGUUGUGGUAUAUUACCUGGUA: the self-cleavage came out at 0.19.

Take GUCCUCUUUCACGUGCGCGUGAAAGAGAGAAGUGAACCAUAGAAAGACACGUUGUGGUAUAUUACCUGGUA: the self-cleavage was determined as 0.136.

Regarding GUCCGCUUUCACGUGCGCGUGAAAGAGAGAAAUGAACCAGAGAAACACACGUUGUGGUAUAUUACCUGGUA, the self-cleavage was 0.0653.

As to GUCCUCUUUCACUUGCGCGUGAAAGAGAGAAGUGAACCAGAGAAACACACGUUUUGGUAUAUUACCUGGUA, the self-cleavage worked out at 0.588.

GUCCUCUUUCACGUGCGCGUGAACGAGAGAAGUGAACCAGAGUAACACACGUUGUGGUAUAUUACCUGGUA: the self-cleavage is 0.115.

In the case of GUCCUCUGUCACGUGCGCGUGAAAGAGAGAAGUGAACCAGAGAAACACGCGUUGUGGUAUAUUACCUGGUA, the self-cleavage amounted to 0.264.

GUCCUCUUUCAGGUGCGCGUGAAAGAGAGAAGUGAACCAGAGAAACACACGUUGUGGUAUAUUACAUGGUA: the self-cleavage was 0.171.

In the case of GUCCUCUUUCACGUGCGCGUGAAAGCGAGAAGUGAACCAGAGAAACACACGUUGUGGUAUAUUACCUUGUA, the self-cleavage stood at 0.186.

Turning to GUCCUCUUUCACGUGCGCGUGAAAGAGAGCAGUGAACCAGAGCAACACACGUUGUGGUAUAUUACCUGGUA, the self-cleavage came out at 0.261.

Regarding GUCCUCUUUCACGCGCGCGUGAUAGAGAGAAGUGAACCAGAGAAACACACGUUGUGGUAUAUUACCUGGUA, the self-cleavage is 1.09.

On to GUCCUCUUUCACGUGCGCGUGAAAGUGAGAAGUGAACCAGAGAAACACACGUUGUGGUAUAUUGCCUGGUA, for which the self-cleavage was found to be 0.399.

Take GUCCUCUUACACGUGCGCGUUAAAGAGAGAAGUGAACCAGAGAAACACACGUUGUGGUAUAUUACCUGGUA: the self-cleavage amounted to 0.732.

Regarding GUCCUCUGUCACGUGUGCGUGAAAGAGAGAAGUGAACCAGAGAAACACACGUUGUGGUAUAUUACCUGGUA, the self-cleavage was 0.916.

Regarding GUCCUCUUUCACGUGCGCGUGAAAGAGAGAAGUGAACCAGAGAAACACACGUUGUGGUAUAUAACCUGGUA, the self-cleavage was 0.188.

Turning to GUCCUCUUACACGUGCGCGUGAAAGAGAGAAGUGAACCAGAGACACACACGUUGUGGUAUAUUACCUGGUA, the self-cleavage amounted to 0.132.

For the variant GUCCUCUUUCACGUGCGCGUGAAAGAGAGAAGUUAACCAGAGAAACACACGUUGUGGCAUAUUACCUGGUA, the self-cleavage came to 1.53.

On to GUCCUCUUUCACGAGCGCGUGAAAGAGAGAAGUGAACCAGAGAAACACACGUUGUGGUAUAUCACCUGGUA, for which the self-cleavage was found to be 0.212.

With GUCCUCUUUCACGUGCGCGUCAAAGAGAGAAGUGAACCAGAGAAACACACGUUGUGGUGUAUUACCUGGUA, the self-cleavage is 0.206.

As to GUCCUCUUCCACGUGCGCGUGAAAGAGAGAAGUGAACCAGAGAAACACACGUUGUGGUAUAUUACGUGGUA, the self-cleavage was determined as 0.202.

With CCCCUCUUUCACGUGCGCGUGAAAGAGAGAAGUGAACCAGAGAAACACACGUUGUGGUAUAUUACCUGGUA, the self-cleavage amounted to 0.233.

Regarding GUCCUCUUUCACGUGGGCGUGAAAGAGAGAAGUGAACCAGACAAACACACGUUGUGGUAUAUUACCUGGUA, the self-cleavage came out at 0.152.

As for GUCCUCUUUCACGCGCGCGUGAAAGAGAGAAGUGAACCAGAGAAACACACGUUGUGAUAUAUUACCUGGUA, the self-cleavage was 0.215.
